From US9993566B2, “SEZ6 modulators and methods of use” (AbbVie Stemcentrx LLC, priority 2013, dated 2018)

Experiments:
[1] = system: LU124OXAHIp2 cells; experiment: Oxaliplatin sensitivity, Cell Titer Glo dose response; assay type: cell-based, human; conditions: seven days in culture, oxaliplatin-resistant line
Text: (§1) Cisplatin and its derivatives, including oxaliplatin are the chemotherapeutic standard of care for SCLC. An oxaliplatin-resistant SCLC PDX line was developed due to concerns that cisplatin may not be stable in tissue culture medium (Schuldes et al., 1997, PMID: 9128988). The oxaliplatin-resistant SCLC line was generated by isolating human cells from LU124p2, a SCLC PDX line that had been passaged subcutaneously twice through NOD.SCID mice. LU124p2 tumors were resected from mice after reaching 800-2,000 mm^3, dissociated into single cell suspensions using art-recognized enzymatic digestion techniques (see, for example, US2007/0292414), and depleted of murine cells. The cells were then washed and cultured in 5% oxygen and serum-free medium and immediately treated with 1 μM of oxaliplatin. After seven days of exposure to oxaliplatin, the cells were washed and allowed to recover for two weeks in standard serum-free media with fresh renewal of medium twice a week. After the recovery period, the cells were washed and re-plated into a new flask with 1 μM of oxaliplatin for seven more days, followed by a final wash and a two week recovery period. The resulting cell line was termed LU124OXAHIp2. Single cell suspensions were generated using Versene (Invitrogen). Some of the cells were injected into mice to propagate the LU124OXAHIp2 cell line, while other cells were cultured in vitro to test sensitivity to oxaliplatin.
(§2) Oxaliplatin sensitivity of LU124OXAHIp2 was tested as follows: LU124OXAHIp2 cells were plated onto 96-well plates and treated with a titration of oxaliplatin in serum-free medium as is standard in the art. After seven days in culture, cells were harvested using Cell Titer Glo® (Promega) as per the manufacturer's instructions and dose response curves were obtained. […] To determine whether the resistance was stable, LU124OXAHIp2 cells were passaged again through immunocompromised mice to yield the cell line called LU124OXAHIp3.

[2] = system: LU124OXAHIp3 cells; experiment: as above; assay type: cell-based, human; conditions: after further passage through mice without oxaliplatin
Text: as §1, §2

[3] = system: LU124p2 parental cell line; experiment: as above; assay type: cell-based, human; conditions: seven days in culture
Text: as §1, §2

[4] = system: HEK293 cells overexpressing SEZ6; experiment: In vitro cytotoxicity of ADC; assay type: cell-based, human
Method: The final ADC was analyzed for protein concentration (by measuring UV), aggregation (SEC), drug to antibody ratio (DAR) by reverse phase (RP) HPLC, presence of unconjugated antibody by hydrophobic interaction chromatography (HIC) HPLC, non-proteinaceous materials by RP HPLC and in vitro cytotoxicity using a SEZ6 expressing cell line.

[5] = system: LU117 tumor; experiment: SCLC NTX tumor volume in immunodeficient mice, humanized ADCs; assay type: in vivo, human; conditions: three injections of 1 mg/kg over seven days
Method: (§3) The ability of humanized anti-SEZ6 ADCs to reduce SCLC tumor volume was also tested. Anti-SEZ6 ADCs (hSC17.17, hSC17.24, hSC17.34 and hSC17.46), and the human IgG1 isotype control ADC (huIgG1) were administered to immunodeficient mice bearing various patient derived NTX tumors. Mice were given three injections of 1 mg/kg (indicated by the vertical lines in FIGS. 18C and 18D) over a period of seven days. Following treatment, tumor volumes and mouse weights were monitored until tumors exceeded 800 mm^3 or mice became sick. Complete and durable elimination of tumor mass was achieved by the administration of humanized anti-SEZ6 ADCs in four SCLC tumors.

[6] = system: LU64 tumor; experiment: as above; assay type: in vivo, human; conditions: three injections of 1 mg/kg over seven days
Method: as §3

[7] = system: LU80 tumor; experiment: as above; assay type: in vivo, human; conditions: three injections of 1 mg/kg over seven days
Method: as §3

[8] = target: T1, mouse SEZ6 (Mus musculus, UniProt Q7TSK2); experiment: Flow cytometry cross reactivity, Neuro2a cells; assay type: binding; conditions: 5 μg/mL antibody
T1 construct: Neuro2a (ATCC Cat # CCL131), and RIN-m5F (ATCC cat # CRL-11605) cell lines which express mouse SEZ6 and rat SEZ6; host or cells: Neuro2a
Method: In this regard flow cytometry was performed using a FACSCanto II as per the manufacturer's instructions in order to confirm that selected SC17 antibody modulators can immunospecifically associate with human SEZ6 and to determine whether the same modulators cross-react with cynomolgus, rat and/or murine SEZ6 in addition to SEZ6L and SEZ6L2. More particularly modulators were tested for cross reactivity to murine SEZ6 and rat SEZ6 by flow cytometry against Neuro2a (ATCC Cat # CCL131), and RIN-m5F (ATCC cat # CRL-11605) cell lines which express mouse SEZ6 and rat SEZ6, respectively. For examining cross reactivity to cynomolgus SEZ6, yeast displaying the extracellular domain of cynomolgus SEZ6 (Boder et al, 1997) were used for flow cytometry analysis.
Briefly 1×10^5 cells per well of Neuro2a, RIN-5mF, or yeast displaying cynomolgus SEZ6 cells were incubated for 30 minutes with 50 μL PBS (2% FCS) buffer with 5 μg/mL antibody. Cells were washed twice with the same buffer and then incubated with 50 μL per sample DyLight 649 labeled goat-anti-mouse IgG, Fc fragment specific secondary diluted 1:200 in PBS buffer. After incubating for 15 minutes cells were washed twice with the PBS buffer and re-suspended in the same with DAPI for flow cytometry analysis of Neuro2a and Rin-m5F or buffer without DAPI for flow cytometric analysis of yeast cells with cSEZ6.

[9] = system: rat SEZ6; experiment: Flow cytometry cross reactivity, RIN-m5F cells; assay type: binding; conditions: 5 μg/mL antibody
In short: (§4)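 Neuro2a (mouse SEZ6), RIN-m5F (rat SEZ6) or yeast displaying cynomolgus SEZ6 extracellular domain, 1×10^5 cells, incubated 30 min with 5 μg/mL antibody in PBS/2% FCS. Detection by DyLight 649 anti-mouse IgG Fc secondary (1:200, 15 min), then flow cytometry, with DAPI for mammalian cells only.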

[10] = target: T2, SEZ6L2 (Homo sapiens, UniProt Q6UXD5, INS830AYEELLDNRKLEV); experiment: ELISA cross reactivity to family member SEZ6L2; assay type: binding; set-up: key to binds SEZ6 family member SEZ6L2 (dagger): *: antibodies that bind SEZ6 family members SEZ6L and SEZ6L2 are designated with an asterisk and/or a dagger, respectively; †: antibodies that bind SEZ6 family members SEZ6L and SEZ6L2 are designated with an asterisk and/or a dagger, respectively
T2 construct: IgK signal peptide (N, cleaved yes); made in house; host or cells: HEK-293T or CHO-S
Method: To determine cross reactivity to family member proteins, SEZ6L and SEZ6L2, an ELISA-based assay was used. Plates were coated with SEZ6, SEZ6L, or SEZ6L2 proteins at 0.2 μg/mL in PBS overnight. After washing with PBS containing 0.05% (v/v) Tween 20 (PBST), the wells were blocked with 2% (w/v) BSA in PBS (PBSA), 100 μL/well for 1 hour at room temperature. Antibody was then added at 1 μg/mL in 100 μL PBSA for 1 hour at room temperature. After washing with PBST, 100 μL/well HRP-labeled goat anti-mouse IgG diluted 1:2,000 in PBSA for 1 hour at room temperature. The plates were washed and 100 μL/well of the TMB substrate solution (Thermo Scientific 34028) was added for 15 minutes at room temperature. After developing, an equal volume of 2M H2SO4 was added to stop substrate development and analyzed by spectrophotometer at OD 450. […] As discussed above, such pan-SEZ6 antibodies are compatible with the teachings herein and may be used in conjunction with the disclosed methods.

[11] = system: LU100, a SCLC tumor; experiment: Fab-saporin cytotoxicity in NTX tumor cells; assay type: cell-based, human; conditions: 50 and 500 pM antibody with Fab-saporin, seven days
Method: (§5) To corroborate the results of Example 14 and determine whether SEZ6 modulators can mediate toxin internalization and cell killing of human tumor cells (as opposed to engineered cells), mouse lineage-depleted NTX cells were plated and subsequently exposed to anti-SEZ6 antibodies and Fab-saporin.
(§6) NTX tumors were dissociated into a single cell suspension and plated on Primaria™ plates (BD Biosciences) in growth factor supplemented serum free media as is known in the art. After culturing the cells for one day at 37° C./5% CO2/5% O2, they were treated with a control (IgG1, IgG2a or IgG2b) or a murine SEZ6 modulator and Fab-saporin as described in Example 14. After seven days, the modulator-mediated saporin cytotoxicity was assessed by quantifying the remaining number of live cells using Cell Titer Glo.

[12] = system: LU37, a NSCLC tumor; experiment: Fab-saporin cytotoxicity in NTX tumor cells; assay type: cell-based, human; conditions: antibody with Fab-saporin, seven days
Method: as §5, §6

[13] = system: LU80, a SCLC tumor; experiment: Fab-saporin cytotoxicity in NTX tumor cells; assay type: cell-based, human; conditions: antibody with Fab-saporin, seven days
Method: as §5, §6

[14] = target: T3, SEZ6 ECD (Homo sapiens, UniProt Q53EL9); experiment: Fine epitope mapping (phage display peptide library or yeast-displayed SEZ6 ECD mutants); assay type: binding; conditions: epitope conformational (discontinuous) or linear
T3 construct: SEZ6 extracellular domain (amino acids 1-904); expressed in transfected cells; host or cells: yeast (surface display, Cochran et al. protocol)

[15] = target: T4, SEZ6 (Homo sapiens, UniProt Q53EL9); experiment: Immunohistochemistry validation on FFPE cell pellets; assay type: binding; conditions: FFPE sections
T4 construct: produce a cDNA fragment encoding the mature human SEZ6 protein; IgK signal peptide (N); T2A peptide (residue left after ribosomal skipping; GFP is a separate protein) (C); expressed in transfected cells; host or cells: HEK-293T (lentiviral transduction, pCDH-EF1-MCS-T2A-GFP)
Method: Immunohistochemistry (IHC) was performed on PDX tumors to confirm that SEZ6 is expressed on the surface of certain PDX tumors; and in order to determine the location of the SEZ6 protein in the tumor architecture. IHC was performed on formalin fixed paraffin embedded (FFPE) tissue sections using an indirect detection method which included murine monoclonal primary antibody against SEZ6 (SC17.140), mouse specific biotin conjugated secondary antibodies, avidin/biotin complex coupled with horse radish peroxidase, and DAB detection (Nakene P K 1968; 16:557-60). […] Specificity was further confirmed by competing signal with a 5 molar excess of purified recombinant SEZ6 on HEK-293T cells overexpressing human SEZ6 and NTX tumors that were shown by IHC to express SEZ6 (data not shown).

[16] = system: cynomolgus SEZ6; experiment: Flow cytometry cross reactivity, yeast displaying extracellular domain of cynomolgus SEZ6; assay type: binding; conditions: 5 μg/mL antibody
In short: as §4

[17] = system: LU50 LCNEC tumor; experiment: NTX tumor growth in immunodeficient mice, murine ADCs; assay type: in vivo, human; conditions: three injections of 1 mg/kg intraperitoneally over seven days, NOD/SCID mice
Method: Patient-derived NTX tumors were grown subcutaneously in the flanks of female NOD/SCID recipient mice using art-recognized techniques. Tumor volumes and mouse weights were monitored twice per week. When tumor volumes reached 150-250 mm^3, mice were randomly assigned to treatment groups and injected intraperitoneally with SC17-ADC1 or a control MsIgG1-ADC1. Mice were given three injections of 1 mg/kg (indicated by the vertical lines in FIG. 17B) over a period of seven days. Following treatment, tumor volumes and mouse weights were monitored until tumors exceeded 800 mm^3 or mice became sick.

rat SEZ6, sequence (as listed by the source): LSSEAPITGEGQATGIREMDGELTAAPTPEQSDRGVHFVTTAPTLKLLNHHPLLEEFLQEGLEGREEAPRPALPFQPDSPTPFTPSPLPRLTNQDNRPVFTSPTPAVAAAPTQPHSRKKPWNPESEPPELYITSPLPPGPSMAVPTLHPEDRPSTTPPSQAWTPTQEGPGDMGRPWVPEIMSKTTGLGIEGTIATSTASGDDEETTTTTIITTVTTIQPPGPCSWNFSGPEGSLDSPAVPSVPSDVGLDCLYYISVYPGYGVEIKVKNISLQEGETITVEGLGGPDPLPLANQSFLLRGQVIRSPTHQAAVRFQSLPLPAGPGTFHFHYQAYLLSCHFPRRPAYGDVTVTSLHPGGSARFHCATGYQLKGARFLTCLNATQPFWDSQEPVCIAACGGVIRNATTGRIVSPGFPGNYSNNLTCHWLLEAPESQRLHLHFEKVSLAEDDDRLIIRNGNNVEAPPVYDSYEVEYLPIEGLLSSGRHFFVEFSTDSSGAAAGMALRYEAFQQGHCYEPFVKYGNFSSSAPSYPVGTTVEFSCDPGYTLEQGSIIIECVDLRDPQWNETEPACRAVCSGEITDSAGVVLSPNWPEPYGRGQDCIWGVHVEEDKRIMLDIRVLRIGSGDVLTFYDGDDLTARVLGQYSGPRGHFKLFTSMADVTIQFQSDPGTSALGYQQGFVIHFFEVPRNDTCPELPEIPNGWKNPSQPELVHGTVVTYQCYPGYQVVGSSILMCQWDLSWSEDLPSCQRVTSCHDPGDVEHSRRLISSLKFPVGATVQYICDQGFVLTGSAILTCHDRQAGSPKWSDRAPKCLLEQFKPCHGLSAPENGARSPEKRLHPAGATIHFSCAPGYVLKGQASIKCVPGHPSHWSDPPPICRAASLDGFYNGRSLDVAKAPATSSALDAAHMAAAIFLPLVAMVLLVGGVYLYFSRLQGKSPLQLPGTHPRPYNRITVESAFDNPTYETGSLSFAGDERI
T2 sequence (Q6UXD5 with tags, fused parts or gaps with the stated changes): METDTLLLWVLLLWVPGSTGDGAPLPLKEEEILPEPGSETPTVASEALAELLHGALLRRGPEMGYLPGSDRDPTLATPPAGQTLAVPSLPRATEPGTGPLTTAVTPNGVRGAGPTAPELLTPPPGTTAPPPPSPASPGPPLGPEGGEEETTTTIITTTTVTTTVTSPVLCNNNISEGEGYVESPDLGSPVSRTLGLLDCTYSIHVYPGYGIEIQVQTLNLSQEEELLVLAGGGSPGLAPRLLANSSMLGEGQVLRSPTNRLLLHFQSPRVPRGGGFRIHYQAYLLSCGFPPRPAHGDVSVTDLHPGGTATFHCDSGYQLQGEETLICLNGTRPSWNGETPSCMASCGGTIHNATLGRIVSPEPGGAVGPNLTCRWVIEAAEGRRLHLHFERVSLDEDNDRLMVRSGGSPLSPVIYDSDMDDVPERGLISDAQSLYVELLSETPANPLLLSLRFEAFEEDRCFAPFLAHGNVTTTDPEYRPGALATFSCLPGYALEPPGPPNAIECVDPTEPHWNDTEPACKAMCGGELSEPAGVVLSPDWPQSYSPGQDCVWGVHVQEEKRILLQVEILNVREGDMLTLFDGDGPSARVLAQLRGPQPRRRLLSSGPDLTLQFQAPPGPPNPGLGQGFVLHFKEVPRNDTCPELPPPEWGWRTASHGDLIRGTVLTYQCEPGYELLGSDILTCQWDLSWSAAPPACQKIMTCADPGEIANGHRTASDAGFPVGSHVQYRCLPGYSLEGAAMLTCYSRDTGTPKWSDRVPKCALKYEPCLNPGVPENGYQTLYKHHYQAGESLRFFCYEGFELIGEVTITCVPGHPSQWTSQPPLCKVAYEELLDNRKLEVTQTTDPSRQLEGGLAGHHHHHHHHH
T1 sequence (Q7TSK2 20-991): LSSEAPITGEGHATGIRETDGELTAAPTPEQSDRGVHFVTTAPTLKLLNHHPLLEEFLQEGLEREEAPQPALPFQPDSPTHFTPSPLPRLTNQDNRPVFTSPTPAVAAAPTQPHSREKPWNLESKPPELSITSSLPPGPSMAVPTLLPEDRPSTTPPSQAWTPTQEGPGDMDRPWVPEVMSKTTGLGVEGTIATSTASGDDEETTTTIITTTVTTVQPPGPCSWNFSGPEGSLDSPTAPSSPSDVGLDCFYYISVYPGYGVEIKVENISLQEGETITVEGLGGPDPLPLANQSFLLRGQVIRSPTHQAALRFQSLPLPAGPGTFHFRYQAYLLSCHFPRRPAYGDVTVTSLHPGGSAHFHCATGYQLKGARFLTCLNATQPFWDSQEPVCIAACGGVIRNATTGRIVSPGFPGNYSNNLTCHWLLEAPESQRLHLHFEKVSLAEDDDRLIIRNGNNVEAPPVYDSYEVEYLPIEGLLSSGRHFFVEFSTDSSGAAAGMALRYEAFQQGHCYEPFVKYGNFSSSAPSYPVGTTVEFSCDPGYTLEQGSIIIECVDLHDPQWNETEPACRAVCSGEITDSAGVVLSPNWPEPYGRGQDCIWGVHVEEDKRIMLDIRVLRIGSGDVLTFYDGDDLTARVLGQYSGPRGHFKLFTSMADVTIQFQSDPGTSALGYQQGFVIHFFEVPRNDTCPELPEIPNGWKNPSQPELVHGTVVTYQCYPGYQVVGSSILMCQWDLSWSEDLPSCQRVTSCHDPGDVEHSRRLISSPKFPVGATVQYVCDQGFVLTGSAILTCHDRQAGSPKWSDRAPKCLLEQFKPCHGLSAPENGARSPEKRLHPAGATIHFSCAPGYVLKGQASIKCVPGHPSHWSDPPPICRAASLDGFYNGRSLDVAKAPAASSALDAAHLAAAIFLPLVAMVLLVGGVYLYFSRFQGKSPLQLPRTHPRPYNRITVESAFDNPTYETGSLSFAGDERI

Q: How did the IC50 [1] turn out when O=C1[O][Pt]2([NH][C@@H]3CCCC[C@H]3[NH]2)[O]C1=O [oxaliplatin] was run?
A: 2000 to 2500 nM

Q: And the “resistance to oxaliplatin, LU124OXAHIp3” value [2]?
A: Resistance was maintained

Q: And the IC50 [3]?
A: 36 nM

B1: hSC17.17-ADC1 (conjugate)
VL: EIVLTQSPATLSLSPGERATLSCSASSSVSYMHWYQQKPGQAPRLLIYDTSKLPSGIPARFSGSGSGTDFTLTISSLEPEDFAVYYCQQWSSTPPTFGQGTKLEIK
VH: QVQLVQSGAEVKKPGASVKVSCKASGYTFTDYNMHWVRQAPGQGLEWMGEINPNIGGTGYNQKFKGRVTMTRDTSISTAYMELSRLRSDDTAVYYCARTYSYYSYEFAYWGQGTLVTVSS
Q: Which IC50 [4] does the source give for B1 here?
A: 11 nM

Q: What about the “tumor volume, LU117” value [5] of the same molecule?
A: reduction

Q: What about the “tumor volume, LU64” value [6] of the same molecule?
A: elimination

Q: What about the “tumor volume, LU80” value [7] of the same molecule?
A: reduction

B2: SC17.6: murine anti-SEZ6 antibody; SC17.6 is duplicate of SC17.16 (antibody, V domains shown)
VH: EVQLQQSGPELMKPGASVKMSCKASGYTFTDYNMYWVKQNQGKSLEWIGEINPNNGGTAYNQKFRGKATLTVDKSSSTAYMELRSLTSEDSAVYYCARYDKGFDYWGQGTTLTVSS
VL: DIQMTQSPASLSVSVGETVTITCRASANINSNLVWYQQKQGKSPQLLVYAATNLADGVPSRFSGSGSGTQYSLKINSLQSEDFGNYYCQHFWGTPRTFGGGTKLEIK
modifications: Murine SC17.16 VH; Murine SC17.16 VL
Q: Which “cross reactivity to murine SEZ6” value [8] does the source give for B2 here?
A: cross reactive

Q: And the “cross reactivity to rat SEZ6” value [9]?
A: cross reactive

Q: And the “cross reactivity with SEZ6L2” value ([10]; ELISA, antibody 1 μg/mL)?
A: cross-reactive

Q: What about the “binds SEZ6 family member SEZ6L2 (dagger)” value ([10]; mark in Table 5) of the same molecule?
A: SC17.6^†, SC17.28^†, SC17.103, SC17.109, SC17.119,

Q: What about the “number of tumor cells, LU100” value [11] of the same molecule?
A: reduction of tumor cells

Q: What about the “number of tumor cells, LU37” value [12] of the same molecule?
A: reduction in the number of tumor cells

Q: What about the “number of tumor cells, LU80” value [13] of the same molecule?
A: reduction in the number of tumor cells

B3: SC17.140: murine anti-SEZ6 antibody (antibody, V domains shown)
VH: EVQLQQSGPELMKPGASVKMSCKASGYTFTDYNMHWVKQNQGKSLEWIGEINPNTGGTGYNQKFKGKATLTVDKFSSTAFIELRSLTSEDSAIYYCTRGGYDHYWYFDVWGAGTTVTVSS
VL: QIVLTQSPAIMSASPGEKVTMTCSASSSVSYMHWYQQKSGTSPKRWIYDTSKLASGVPARFSGSGSGTSYSLTISSMEAEDAATYYCQQWSSTPPTFGSGTKLEIK
modifications: Murine SC17.140 VH; Murine SC17.140 VL
notes: murine anti-SEZ6 antibody
Q: Which results are given for B3?
A: Discontinuous [14]: Yes; IHC staining of HEK-293T cell pellets overexpressing SEZ6 compared to naïve HEK-293T cell pellets [15]: specific staining

B4: SC17.46 (antibody, V domains shown)
VH: QVQLQQPGAELVKPGASMKLSCKASGYTFTSYWINWVKQRPGQGLEWIGNIFPDTTTTNYNEKFKSKATLTVDTSSSTAYMQLSSLTSDDSAVYYCAREYYDGTYDAMDYWGQGTSVTV
VL: SFVMTQTPKFLLVSAGDRVTITCKASQSVNNDVAWYQQKPGQSPKLLIYYASNRYTGVPDRFTGSGYGTDFTFTISTVQAEDLAVYFCQQDYSSPRTFGGGTKLEIK
modifications: Murine SC17.46 VH; Murine SC17.46 VL
Q: With B4 as the molecule, how does the “cross reactivity to rat SEZ6” value [9] read?
A: lack of cross reactivity

Q: And the “cross reactivity to cynomolgus SEZ6” value [16]?
A: lack of cross reactivity

Q: What about the Discontinuous [14] of the same molecule?
A: Yes

Q: What about the “duration of tumor growth suppression, LU50” value [17] of the same molecule?
A: 35 days
